Assay results published in patent publication US20120328590A1.

Biological target: actin (endogenous nuclear and cytoplasmic actin of Mel-Juso human melanoma cells) (human)
Experiment: cell-based or functional assay

Row | Substance | TUNEL-positive (apoptotic) cells by laser scanning cytometry, mean [%] | cell survival in Colony Forming Assay (CFA), compared to Cat-GFP control [%]
1 | DNase 1 construct C11 (signal peptide deleted, A114F actin-binding-site mutation, SV-40 NLS at the C-terminus) (from UniProt P24855 23-282) (enzyme) | 11 | 23.2
2 | DNase 1 construct C13 (signal peptide deleted, A114F actin-binding-site mutation, SV-40 NLS at the N-terminus) (from UniProt P24855 23-282) (enzyme) | 5.4 | 32.4
